Measurements as given in doi:10.1101/2024.05.17.594765, “Force-activated zyxin assemblies coordinate actin nucleation and crosslinking to orchestrate stress fiber repair” (bioRxiv, 2024).

B1: C-terminally Halo-tagged full-length zyxin (zyxin-Halo) (natural protein, human, UniProt Q15942 1-572, looked up)
chain: MAAPRPSPAISVSVSAPAFYAPQKKFGPVVAPKPKVNPFRPGDSEPPPAPGAQRAQMGRVGEIPPPPPEDFPLPPPPLAGDGDDAEGALGGAFPPPPPPIEESFPPAPLEEEIFPSPPPPPEEEGGPEAPIPPPPQPREKVSSIDLEIDSLSSLLDDMTKNDPFKARVSSGYVPPPVATPFSSKSSTKPAAGGTAPLPPWKSPSSSQPLPQVPAPAQSQTQFHVQPQPQPKPQVQLHVQSQTQPVSLANTQPRGPPASSPAPAPKFSPVTPKFTPVASKFSPGAPGGSGSQPNQKLGHPEALSAGTGSPQPPSFTYAQQREKPRVQEKQHPVPPPAQNQNQVRSPGAPGPLTLKEVEELEQLTQQLMQDMEHPQRQNVAVNELCGRCHQPLARAQPAVRALGQLFHIACFTCHQCAQQLQGQQFYSLEGAPYCEGCYTDTLEKCNTCGEPITDRMLRATGKAYHPHCFTCVVCARPLEGTSFIVDQANRPHCVPDYHKQYAPRCSVCSEPIMPEPGRDETVRVVALDKNFHMKCYKCEDCGKPLSIEADDNGCFPLDGHVLCRKCHTARAQT
modifications: Janelia Fluor 646 Halo-ligand conjugated to the Halo tag
notes: zyxin, human, full length; pCAG vector with a C-terminal 3C protease cleavage site and eGFP tag; eGFP removed with 3C protease on the resin; also called zyxin^WT; zyxin-Halo:JF646; source: HEK293F, transfected, purified (anti-GFP nanobody resin, 3C protease, Mono Q, SEC); not shown: Halo, C-terminal, kept; eGFP, C-terminal, cleaved
B2: C-terminally Halo-tagged VASP (VASP-Halo) (natural protein, human, UniProt P50552 1-380, looked up)
chain: MSETVICSSRATVMLYDDGNKRWLPAGTGPQAFSRVQIYHNPTANSFRVVGRKMQPDQQVVINCAIVRGVKYNQATPNFHQWRDARQVWGLNFGSKEDAAQFAAGMASALEALEGGGPPPPPALPTWSVPNGPSPEEVEQQKRQQPGPSEHIERRVSNAGGPPAPPAGGPPPPPGPPPPPGPPPPPGLPPSGVPAAAHGAGGGPPPAPPLPAAQGPGGGGAGAPGLAAAIAGAKLRKVSKQEEASGGPTAPKAESGRSGGGGLMEEMNAMLARRRKATQVGEKTPKDESANQEEPEARVPAQSESVRRPWEKNSTTLPRMKSSSSVTTSETQPCTPSSSDYSDLQRVKQELLEEVKKELQKVKEEIIEAFVQELRKRGSP
modifications: Janelia Fluor 549 Halo-ligand conjugated to the Halo tag
notes: VASP (vasodilator-stimulated phosphoprotein), human; also called VASP^WT; VASP-Halo:JF549; source: E. coli Rosetta2(DE3), purified (Ni-NTA, StrepTrap XT, 3C protease, SEC); not shown: Strep-Tag II, N-terminal, cleaved; Halo, C-terminal, kept; 6xHis-Tag, C-terminal, cleaved

Legend:
Details in all cases: both partners purified
[1] = target: T1, C-terminally Halo-tagged ɑ-actinin-1 (ɑ-actinin-Halo) (human, UniProt P12814 1-892, Janelia Fluor 549 Halo-ligand (TIRF assays) or Alexa Fluor 488 Halo-ligand (droplet assays) conjugated to the Halo tag; unlabeled in the bundle assays); experiment: TIRF microscopy, force reconstitution assay with purified proteins; immobilised myosins, 30% ATTO 488-labeled F-actin, 25 nM (or 250 nM) zyxin-Halo:JF646 and 50 nM ɑ-actinin-Halo:JF549 in MBOS, +ATP (myosin forces); room temperature
T1 construct: ɑ-actinin-1, human; also called ɑ-actinin^WT; ɑ-actinin-Halo:JF549; source: E. coli Rosetta2(DE3), purified (Ni-NTA, TEV protease, HiTrap Q HP, SEC); not shown: 6xHis-Tag, N-terminal, cleaved; Halo, C-terminal, kept

[2] = target: B1; experiment: droplet co-partitioning (iSIM fluorescence microscopy); zyxin construct, VASP and ɑ-actinin mixed together in MBOS with 3% PEG 8K, room temperature; small clusters also without PEG 8K at native cellular concentrations
[3] = target: B2; experiment: as above

T1 sequence (P12814 whole entry): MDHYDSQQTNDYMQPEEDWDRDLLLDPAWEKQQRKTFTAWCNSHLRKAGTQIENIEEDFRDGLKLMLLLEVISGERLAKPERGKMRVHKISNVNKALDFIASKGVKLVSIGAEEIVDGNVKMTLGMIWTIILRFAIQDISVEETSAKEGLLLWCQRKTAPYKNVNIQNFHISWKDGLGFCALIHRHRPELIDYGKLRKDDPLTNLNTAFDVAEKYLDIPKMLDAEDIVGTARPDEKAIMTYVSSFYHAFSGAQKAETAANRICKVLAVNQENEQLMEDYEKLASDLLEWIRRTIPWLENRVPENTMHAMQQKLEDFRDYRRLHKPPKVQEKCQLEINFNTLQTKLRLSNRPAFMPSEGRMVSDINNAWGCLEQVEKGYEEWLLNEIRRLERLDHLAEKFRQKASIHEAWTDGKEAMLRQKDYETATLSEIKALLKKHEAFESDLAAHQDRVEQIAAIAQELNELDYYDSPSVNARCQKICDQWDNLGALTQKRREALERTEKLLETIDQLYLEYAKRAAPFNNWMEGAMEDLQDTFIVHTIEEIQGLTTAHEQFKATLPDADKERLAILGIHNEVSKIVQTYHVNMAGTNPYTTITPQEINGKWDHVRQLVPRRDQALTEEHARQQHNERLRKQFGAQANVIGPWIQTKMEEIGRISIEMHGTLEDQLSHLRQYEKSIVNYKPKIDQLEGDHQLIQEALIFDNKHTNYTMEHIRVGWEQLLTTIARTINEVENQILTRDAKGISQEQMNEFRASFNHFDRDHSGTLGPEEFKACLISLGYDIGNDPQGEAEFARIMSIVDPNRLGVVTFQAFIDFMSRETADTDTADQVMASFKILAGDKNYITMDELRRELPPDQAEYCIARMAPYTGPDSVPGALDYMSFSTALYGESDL

B1
binding result [1]: binds

B2
binding result [2]: binds

B3: minimal zyxin construct with the N-terminal binding motifs (amino acids 1–160), Halo-tagged (domain or fragment, human, UniProt Q15942 1-160, looked up)
chain: MAAPRPSPAISVSVSAPAFYAPQKKFGPVVAPKPKVNPFRPGDSEPPPAPGAQRAQMGRVGEIPPPPPEDFPLPPPPLAGDGDDAEGALGGAFPPPPPPIEESFPPAPLEEEIFPSPPPPPEEEGGPEAPIPPPPQPREKVSSIDLEIDSLSSLLDDMTK
modifications: Janelia Fluor 646 Halo-ligand conjugated to the Halo tag
notes: zyxin, human, amino acids 1–160; also called zyxin^N-term; source: HEK293F, transfected, purified (anti-GFP nanobody resin, 3C protease, Mono Q, SEC); not shown: Halo, C-terminal, kept; eGFP, C-terminal, cleaved
binding result [3]: binds
